The results in this text go back to patent US20190106460A1 (published 2019).

Non-standard residues stand in square brackets, D forms with d. Groups on a side chain read outwards from the residue. *: point of attachment. Chol = cholesteryl, CC(C)CCC[C@@H](C)[C@H]1CC[C@H]2[C@@H]3CC=C4C[C@@H](*)CC[C@]4(C)[C@H]3CC[C@]12C; Benzenesulfonyl(4-tBu) = CC(C)(C)c1ccc(S(=O)(=O)*)cc1; 2,4,6‑trimethylbenzoyl = Cc1cc(C)c(C(=O)*)c(C)c1; Benzenesulfonyl(4-OMe) = COc1ccc(S(=O)(=O)*)cc1; 4‑(i-Pr)PhSO2 = CC(C)c1ccc(S(=O)(=O)*)cc1; Benzoyl(4-tBu) = CC(C)(C)c1ccc(C(=O)*)cc1; 4‑(n-Pr)PhSO2 = CCCc1ccc(S(=O)(=O)*)cc1; Phe(3-F) = N[C@@H](Cc1cccc(F)c1)C(=O)O; Benzoyl(4-Br) = O=C(c1ccc(Br)cc1)*; 2Naphthoyl = O=C(c1ccc2ccccc2c1)*; Benzoyl(4-Me) = Cc1ccc(C(=O)*)cc1; Hexanoyl = CCCCCC(=O)*; Ahx = NCCCCCC(=O)O

B1: 4-(MeO)PhSO2-dEGF(3F)WE-Ahx-k9-NH2 (peptide)
peptide: {Benzenesulfonyl(4-OMe)}-[dD]EG[Phe(3-F)]WE[Ahx][dK][dK][dK][dK][dK][dK][dK][dK][dK]-NH2
SMILES: COc1ccc(S(=O)(=O)N[C@H](CC(=O)O)C(=O)N[C@@H](CCC(=O)O)C(=O)NCC(=O)N[C@@H](Cc2cccc(F)c2)C(=O)N[C@@H](Cc2c[nH]c3ccccc23)C(=O)N[C@@H](CCC(=O)O)C(=O)NCCCCCC(=O)N[C@H](CCCCN)C(=O)N[C@H](CCCCN)C(=O)N[C@H](CCCCN)C(=O)N[C@H](CCCCN)C(=O)N[C@H](CCCCN)C(=O)N[C@H](CCCCN)C(=O)N[C@H](CCCCN)C(=O)N[C@H](CCCCN)C(=O)N[C@H](CCCCN)C(N)=O)cc1
notes: the sheet gives this poly-lysine compound the code UBP022; it is not the untailed UBP022 (1.m39, 5.m30, 6.m3)
B2: 4-(MeO)PhSO2-dEGF(3F)WE-Ahx-K(NHCO-CH2CH2Ch(CH3)2)-NH2 (peptide)
peptide: {Benzenesulfonyl(4-OMe)}-[dD]EG[Phe(3-F)]WE[Ahx]K-NH2
modifications: not fully specified (residue 8); printed as 4-(MeO)PhSO2-dEGF(3F)WE-Ahx-K(NHCO-CH2CH2Ch(CH3)2)-NH2
notes: also called UBP068
B3: 4-(MeO)PhSO2-dEGF(3F)WE-Ahx-K(NHCO-Ph)-NH2 (peptide)
peptide: {Benzenesulfonyl(4-OMe)}-[dD]EG[Phe(3-F)]WE[Ahx]K-NH2
modifications: not fully specified (residue 8); printed as 4-(MeO)PhSO2-dEGF(3F)WE-Ahx-K(NHCO-Ph)-NH2
notes: also called UBP065

For the first assay, the target named is T1, βTrCP (tag cleaved and complexed with Skp1) (UniProt Q9Y297 175-605; P63208 1-163).
T1 construct: Protein of the fluorescence polarisation assay, 0.035 µM; also called Beta Transducin repeat-containing protein; βTrCP/Skp1
T1 sequence (Q9Y297 175-605, chain 1 of 2): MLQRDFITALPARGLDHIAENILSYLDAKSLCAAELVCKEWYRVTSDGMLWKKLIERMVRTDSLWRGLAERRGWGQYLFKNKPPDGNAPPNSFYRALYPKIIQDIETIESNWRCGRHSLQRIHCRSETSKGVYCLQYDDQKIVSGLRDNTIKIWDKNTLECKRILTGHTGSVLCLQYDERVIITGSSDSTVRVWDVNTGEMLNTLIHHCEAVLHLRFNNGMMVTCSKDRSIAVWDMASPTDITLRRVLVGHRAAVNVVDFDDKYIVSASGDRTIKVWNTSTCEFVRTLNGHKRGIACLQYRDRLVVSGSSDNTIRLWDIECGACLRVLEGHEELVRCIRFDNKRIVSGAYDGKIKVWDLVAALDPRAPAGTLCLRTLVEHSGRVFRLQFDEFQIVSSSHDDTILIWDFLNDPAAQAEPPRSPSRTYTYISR
T1 sequence (P63208 whole entry, chain 2 of 2): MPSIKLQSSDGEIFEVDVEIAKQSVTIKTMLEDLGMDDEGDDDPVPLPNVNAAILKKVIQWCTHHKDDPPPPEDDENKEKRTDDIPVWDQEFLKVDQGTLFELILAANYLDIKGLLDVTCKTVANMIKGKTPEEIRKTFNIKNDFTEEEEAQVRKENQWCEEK
The experiment in a line: fluorescence polarisation assay; the column head does not say whether IC50 or Ki. The protocol: Assay components (without compound) were premixed in a microcentrifuge tube and incubated for 1 hour to ensure equilibrium was achieved. Each compound was then added to one tube, mixed by vortexing, and then dispensed into 3 wells of a black 384-well plate and incubated for 30 minutes. Fluorescence polarization was then read (excitation 485 nm, emission 530 nm) using an Analyst-AD from Molecular Devices.
Binding of the compounds to βTrCP was assessed using a fluorescence polarisation (FP) binding assay. The FP assay is an in vitro binding assay using a fluorescein-tagged IkB peptide at 10 nM to mimic substrate binding to βTrCP, and was performed as described above.
Background: Polarisation of emitted light reports the rotation of a fluorescent probe.
{Benzenesulfonyl(4-tBu)}-[dD]EG[Phe(3-F)]WE[Ahx]K(2Naphthoyl)-NH2 (Round II CPP; also called UBP076) [4-(t-Bu)PhSO2-dEGF(3F)WE-Ahx-K(CO(2-Naphth))-NH2]: the “FP Assay /” value was 43.4 nM.
Turning to {4‑(i-Pr)PhSO2}-[dD]EG[Phe(3-F)]WE[Ahx]K(2Naphthoyl)-NH2 (Round II CPP; also called UBP081) [4-(i-Pr)PhSO2-dEGF(3F)WE-Ahx-K(CO(2-Naphth))-NH2], the “FP Assay /” value was 7.66 nM.
On to {Benzenesulfonyl(4-tBu)}-[dD]EG[Phe(3-F)]WE[Ahx]K(Benzoyl(4-Br))-NH2 (Round II CPP; also called UBP079) [4-(t-Bu)PhSO2-dEGF(3F)WE-Ahx-K(CO((4-Br)Ph))-NH2], for which the “FP Assay /” value was 40.8 nM.
Same read-out and setting: for {4‑(i-Pr)PhSO2}-[dD]EG[Phe(3-F)]WE[Ahx]K(Benzoyl(4-Br))-NH2 (Round II CPP; also called UBP083) [4-(i-Pr)PhSO2-dEGF(3F)WE-Ahx-K(CO((4-Br)Ph))-NH2] the value was 36.5 nM.
For the molecule {4‑(i-Pr)PhSO2}-[dD]EG[Phe(3-F)]WE[Ahx]K(2,4,6‑trimethylbenzoyl)-NH2 (Round II CPP; also called UBP082) [4-(i-Pr)PhSO2-dEGF(3F)WE-Ahx-K(CO((2,4,6-Me3)Ph))-NH2], the “FP Assay /” value worked out at 56.1 nM.
Consider {4‑(n-Pr)PhSO2}-[dD]EG[Phe(3-F)]WE[Ahx]K(Benzoyl(4-tBu))-NH2 (Round II CPP; also called UBP084) [4-(n-Pr)PhSO2-dEGF(3F)WE-Ahx-K(CO((4-tBu)Ph))-NH2], for which the “FP Assay /” value came out at 174 nM.
Turning to {Benzenesulfonyl(4-tBu)}-[dD]EG[Phe(3-F)]WE[Ahx]K(2,4,6‑trimethylbenzoyl)-NH2 (Round II CPP; also called UBP077) [4-(t-Bu)PhSO2-dEGF(3F)WE-Ahx-K(CO((2,4,6-Me3)Ph))-NH2], the “FP Assay /” value came out at 40.9 nM.
With {4‑(n-Pr)PhSO2}-[dD]EG[Phe(3-F)]WE[Ahx]K(2,4,6‑trimethylbenzoyl)-NH2 (Round II CPP; also called UBP086) [4-(n-Pr)PhSO2-dEGF(3F)WE-Ahx-K(CO((2,4,6-Me3)Ph))-NH2], the “FP Assay /” value was determined as 29.4 nM.
Still for that read-out and setting: for {4‑(i-Pr)PhSO2}-[dD]EG[Phe(3-F)]WE[Ahx]K(Benzoyl(4-tBu))-NH2 (Round II CPP; also called UBP080) [4-(i-Pr)PhSO2-dEGF(3F)WE-Ahx-K(CO((4-tBu)Ph))-NH2] the value was 73 nM.
Still for that read-out and setting: the result for B1 reads 548 nM; that for {Benzenesulfonyl(4-tBu)}-[dD]EG[Phe(3-F)]WE[Ahx]K(Benzoyl(4-tBu))-NH2 (Round II CPP; also called UBP075) [4-(t-Bu)PhSO2-dEGF(3F)WE-Ahx-K(CO((4-tBu)Ph))-NH2], 87.8 nM; that for {Benzenesulfonyl(4-OMe)}-[dD]EG[Phe(3-F)]WE[Ahx]K([Ahx-Chol])-NH2 (X stands for Ahx; also called UBP036) [4-(MeO)PhSO2-dEGF(3F)WE-Ahx-K(Ahx-Chol)-NH2], 19.3 nM.
For the molecule {Benzenesulfonyl(4-tBu)}-[dD]EG[Phe(3-F)]WE[Ahx]K(Benzoyl(4-Me))-NH2 (Round II CPP; also called UBP078) [4-(t-Bu)PhSO2-dEGF(3F)WE-Ahx-K(CO((4-Me)Ph))-NH2], the “FP Assay /” value is 40 nM.
Turning to {4‑(n-Pr)PhSO2}-[dD]EG[Phe(3-F)]WE[Ahx]K(2Naphthoyl)-NH2 (Round II CPP; also called UBP085) [4-(n-Pr)PhSO2-dEGF(3F)WE-Ahx-K(CO(2-Naphth))-NH2], the “FP Assay /” value came to 136 nM.

The target of a further assay is T2, Beta Transducin repeat-containing protein (βTrCP), tag cleaved and complexed with Skp1 (UniProt Q9Y297 175-605; P63208 1-163).
T2 construct: the FP protocol says that Ki is determined from FP dose-response curves; also called βTrCP/Skp1
T2 sequence (Q9Y297 175-605, chain 1 of 2): as the sequence (Q9Y297 175-605, chain 1 of 2) above
T2 sequence (P63208 whole entry, chain 2 of 2): as the sequence (P63208 whole entry, chain 2 of 2) above
Nature of the assay: FP competition dose-response, fluorescein-IkB peptide tracer on βTrCP/Skp1 (average Ki; assay not given).
As to {Benzenesulfonyl(4-OMe)}-[dD]EG[Phe(3-F)]WE[Ahx]K(Hexanoyl)-NH2 (also called UBP063) [4-(MeO)PhSO2-dEGF(3F)WE-Ahx-K(NHCO-(CH2)4CH3)-NH2], the inhibitory constant (Ki) is 5.37 nM.
Consider B2, for which the affinity corresponds to a Ki of 5.38 nM.
Same read-out and setting: for {4‑I‑PhSO2}-[dD]EG[Phe(3-F)]WE-NH2 (also called UBP052) [4-I-PhSO2-dEGF(3F)WE-NH2] the value was 253 nM.
Consider {4‑Cl‑PhSO2}-[dD]EG[Phe(3-F)]WE-NH2 (also called UBP053) [4-Cl-PhSO2-dEGF(3F)WE-NH2], for which affinity was put at a Ki of 330 nM.
Same read-out and setting: the result for {4‑Br‑3‑CF3‑PhSO2}-[dD]EG[Phe(3-F)]WE-NH2 (also called UBP046) [4-Br-3-CF3-PhSO2-dEGF(3F)WE-NH2] reads 14.2 nM; that for {4‑Pr‑PhSO2}-[dD]EG[Phe(3-F)]WE-NH2 (also called UBP041) [4-Pr-PhSO2-dEGF(3F)WE-NH2], 1.77 nM.
{2,4‑(Br)2‑PhSO2}-[dD]EG[Phe(3-F)]WE-NH2 (also called UBP049) [2,4-(Br)2-PhSO2-dEGF(3F)WE-NH2] yielded an inhibitory constant (Ki) of 45.3 nM.
Turning to {3,5‑(CH3)2‑PhSO2}-[dD]EG[Phe(3-F)]WE-NH2 (also called UBP050) [3,5-(CH3)2-PhSO2-dEGF(3F)WE-NH2], the Ki was 24.6 nM.
For the molecule {2‑Naph‑SO2}-[dD]EG[Phe(3-F)]WE-NH2 (also called UBP044) [2-Naph-SO2-dEGF(3F)WE-NH2], the inhibition constant Ki came out at 5.81 nM. Against the preceding molecule, the Ki is about 4.2-fold lower.
With {Benzenesulfonyl(4-OMe)}-[dD]EG[Phe(3-F)]WE[Ahx]K(4‑isopropylphenylsulfonyl)-NH2 (also called UBP072) [4-(MeO)PhSO2-dEGF(3F)WE-Ahx-K(NHSO2-(4-i-Pr)-Ph))-NH2], the inhibition constant Ki came out at 12.9 nM.
As to {4‑CF3‑PhSO2}-[dD]EG[Phe(3-F)]WE-NH2 (also called UBP047) [4-CF3-PhSO2-dEGF(3F)WE-NH2], the Ki is 9.45 nM. This Ki and that of the molecule before are within 1.5-fold of each other.
In turn, {Benzenesulfonyl(4-OMe)}-[dD]EG[Phe(3-F)]WE[Ahx]K(4‑n‑propylphenylsulfonyl)-NH2 (also called UBP074) [4-(MeO)PhSO2-dEGF(3F)WE-Ahx-K(NHSO2-(4-(n-Pr)-Ph)-NH2] registered a Ki of 28.6 nM.
The same measure, in the same setting: for {Benzenesulfonyl(4-OMe)}-[dD]EG[Phe(3-F)]WE[Ahx]K(phenylcarbamoyl)-NH2 [4-(MeO)PhSO2-dEGF(3F)WE-Ahx-K(NHCONH-Ph)-NH2] the value was 5.61 nM.
For the molecule {4‑i‑Pr‑PhSO2}-[dD]EG[Phe(3-F)]WE-NH2 (also called UBP040) [4-i-Pr-PhSO2-dEGF(3F)WE-NH2], affinity was put at a Ki of 1.6 nM. Compared with the last molecule, the Ki is about 3.5-fold lower.
As to {4‑OCF3‑PhSO2}-[dD]EG[Phe(3-F)]WE-NH2 (also called UBP045) [4-OCF3-PhSO2-dEGF(3F)WE-NH2], affinity was put at a Ki of 4.77 nM.
Molecule {Benzenesulfonyl(4-OMe)}-[dD]EG[Phe(3-F)]WE[Ahx]K(1‑naphthyloxycarbonyl)-NH2 (also called UBP069) [4-(MeO)PhSO2-dEGF(3F)WE-Ahx-K(NHOCO-1-Naph)-NH2] came in with a Ki of 11.6 nM.
Take {Benzenesulfonyl(4-OMe)}-[dD]EG[Phe(3-F)]WE[Ahx]K(3,5‑dichlorobenzoyl)-NH2 (also called UBP062) [4-(MeO)PhSO2-dEGF(3F)WE-Ahx-K(NHCO-(3,5-(Cl)2-Ph))-NH2]: the inhibition constant (Ki) is 6.23 nM. This Ki is about 1.9-fold lower than that of the molecule before.
In turn, {Benzenesulfonyl(4-OMe)}-[dD]EG[Phe(3-F)]WE[Ahx]K(4‑methoxybenzoyl)-NH2 (also called UBP066) [4-(MeO)PhSO2-dEGF(3F)WE-Ahx-K(NHCO-(4-(OMe)-Ph))-NH2] had an inhibitory constant (Ki) of 5.17 nM. The Ki values of the last two molecules are within 1.5-fold of each other.
Take {Benzenesulfonyl(4-OMe)}-[dD]EG[Phe(3-F)]WE[Ahx]K(4‑(trifluoromethyl)benzoyl)-NH2 (also called UBP064) [4-(MeO)PhSO2-dEGF(3F)WE-Ahx-K(NHCO-(4-(CF3)-Ph))-NH2]: the Ki came out at 6.39 nM. The Ki values of the last two molecules are within 1.5-fold of each other.
{2,4‑(Cl)2‑PhSO2}-[dD]EG[Phe(3-F)]WE-NH2 (also called UBP048) [2,4-(Cl)2-PhSO2-dEGF(3F)WE-NH2]: the affinity corresponds to a Ki of 27 nM.
Regarding {Benzenesulfonyl(4-OMe)}-[dD]EG[Phe(3-F)]WE[Ahx]K(phenylsulfonyl)-NH2 (also called UBP073) [4-(MeO)PhSO2-dEGF(3F)WE-Ahx-K(NHSO2Ph)-NH2], the inhibitory constant (Ki) worked out at 13 nM.
In turn, B3 returned a Ki of 5.94 nM.
{4‑Br‑PhSO2}-[dD]EG[Phe(3-F)]WE-NH2 (also called UBP042) [4-Br-PhSO2-dEGF(3F)WE-NH2] came in with a Ki of 2.52 nM.
Still for that read-out and setting: the result for {4‑Br‑2‑CH3‑PhSO2}-[dD]EG[Phe(3-F)]WE-NH2 (also called UBP043) [4-Br-2-CH3-PhSO2-dEGF(3F)WE-NH2] reads 3.96 nM; that for {Benzenesulfonyl(4-OMe)}-[dD]EG[Phe(3-F)]WE[Ahx]K(4‑(dimethylamino)benzoyl)-NH2 (also called UBP071) [4-(MeO)PhSO2 dEGF(3F)WE-Ahx-K(NHCO-(4-(Me2N)-Ph))-NH2], 9.51 nM.
{4‑Br‑2‑OCF3‑PhSO2}-[dD]EG[Phe(3-F)]WE-NH2 (also called UBP051) [4-Br-2-OCF3-PhSO2-dEGF(3F)WE-NH2] returned a Ki of 110 nM.

By Ki is commonly meant a measure of affinity in units of concentration, obtained from inhibition or displacement. Higher therefore signals lower affinity.
